For orientation: EC50 means the concentration needed to bring the measured effect to its halfway point.

This note sets out measurements from patent US20190085083A1 (BRIGHAM AND WOMEN S HOSPITAL, published 2019).

The experiment concerns the target T1, hKLRG1 (human KLRG1), plate-coated, Example 21 (human, UniProt Q96E93 60-195, limits assumed).
T1 construct: also called plate-coated KLRG1
T1 sequence (looked up): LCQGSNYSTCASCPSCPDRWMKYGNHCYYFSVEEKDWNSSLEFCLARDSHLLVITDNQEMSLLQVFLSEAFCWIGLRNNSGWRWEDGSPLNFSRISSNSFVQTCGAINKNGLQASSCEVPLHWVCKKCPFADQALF
In words: ELISA, soluble hE-cadherin on plate-coated hKLRG1. From the text: An ELISA based KLRG1/E-cadherin competition assay was developed to measure KLRG1/E-cadherin binding as well as neutralization of KLRG1/E-cadherin binding.
FIG. 23 presents the results of soluble hE-cadherin binding to plate-coated hKLRG1.
(In general: An ELISA detects its analyte on a solid surface through an enzyme-linked reagent.)

B1: soluble recombinant human E-cadherin (ligand)
chain: DWVIPPISCPENEKGPFPKNLVQIKSNKDKEGKVFYSITGQGADTPPVGVFIIERETGWLKVTEPLDRERIATYTLFSHAVSSNGNAVEDPMEILITVTDQNDNKPEFTQEVFKGSVMEGALPGTSVMEVTATDADDDVNTYNAAIAYTILSQDPELPDKNMFTINRNTGVISVVTTGLDRESFPTYTLVVQAADLQGEGLSTTATAVITVTDTNDNPPIFNPTTYKGQVPENEANVVITTLKVTDADAPNTPAWEAVYTILNDDGGQFVVTTNPVNNDGILKTAKGLDFEAKQQYILHVAVTNVVPFEVSLTTSTATVTVDVLDVNEAPIFVPPEKRVEVSEDFGVGQEITSYTAQEPDTFMEQKITYRIWRDTANWLEINPDTGAISTRAELDREDFEHVKNSTYTALIIATDNGSPVATGTGTLLLILSDVNDNAPIPEPRTIFFCERNPKPQVINIIDADLPPNTSPFTAELTHGASANWTIQYNDPTQESIILKPKMALEVGDYKINLKLMDNQNKDQVTTLEVSVCDCEGAAGVCRKAQPVEAGLQIPA
notes: also called hE-cadherin; soluble E-cadherin
On to B1, for which the EC50 was 25 nM.
